# Measurements taken from patent US7109015B2, “Removal of N-terminal methionine from proteins by engineered methionine aminopeptidase” (Academia Sinica, priority 2004, dated 2006).
# Where a chain is given by its changes, count along the chain named. Numbers in names are those of the source. Read-outs that look alike come from different tables or passages of the source. Marks after values point to notes of the source that are not given here.
# B1: MetAP-Q233G: E. coli MetAP with Gln233 replaced by Gly (protein, UniProt P0AE18 2-264, looked up, variant Q233G)
# Methionine aminopeptidase: AISIKTPEDIEKMRVAGRLAAEVLEMIEPYVKPGVSTGELDRICNDYIVNEQHAVSACLGYHGYPKSVCISINEVVCHGIPDDAKLLKDGDIVNIDVTVIKDGFHGDTSKMFIVGKPTIMGERLCRITQESLYLALRMVKPGINLREIGAAIQKFVEAEGFSVVREYCGHGIGRGFHEEPQVLHYDSRETNVVLKPGMTFTIEPMVNAGKKEIRTMKDGWTVKTKDRSLSAGYEHTIVVTDNGCEILTLRKDDTIPAIISHDE
# B2: Y65F: E. coli MetAP mutation in the putative substrate-binding pocket (protein, UniProt P0AE18 2-264, looked up, variant Y65F)
# Methionine aminopeptidase: B1 Methionine aminopeptidase with Y64F, G232Q
# B3: MetAP-M206T: E. coli MetAP with Met206 replaced by Thr (protein, UniProt P0AE18 2-264, looked up, variant M206T)
# Methionine aminopeptidase: B1 Methionine aminopeptidase with M205T, G232Q
# B4: MetAP-M206V: E. coli MetAP with Met206 replaced by Val (protein, UniProt P0AE18 2-264, looked up, variant M206V)
# Methionine aminopeptidase: B1 Methionine aminopeptidase with M205V, G232Q
# B5: MetAP-M206G: E. coli MetAP with Met206 replaced by Gly (protein, UniProt P0AE18 2-264, looked up, variant M206G)
# Methionine aminopeptidase: B1 Methionine aminopeptidase with M205G, G232Q
# B6: C59S: E. coli MetAP mutation in the putative substrate-binding pocket (protein, UniProt P0AE18 2-264, looked up, variant C59S)
# Methionine aminopeptidase: B1 Methionine aminopeptidase with C58S, G232Q
# B7: MetAP-*TT (protein)
# chain: B1 Methionine aminopeptidase with M205T, G232T
# B8: MetAP-*GG (protein)
# chain: B1 Methionine aminopeptidase with M205G
# B9: MetAP-Q233T: E. coli MetAP with Gln233 replaced by Thr (protein, UniProt P0AE18 2-264, looked up, variant Q233T)
# Methionine aminopeptidase: B1 Methionine aminopeptidase with G232T
# B10: Y62F: E. coli MetAP mutation in the putative substrate-binding pocket (protein, UniProt P0AE18 2-264, looked up, variant Y62F)
# Methionine aminopeptidase: B1 Methionine aminopeptidase with Y61F, G232Q
# B11: MetAP-YMQ: wild type E. coli Met aminopeptidase (SEQ ID NO:1) (protein, listed as Escherichia coli)
# chain: MAISIKTPEDIEKMRVAGRLAAEVLEMIEPYVKPGVSTGELDRICNDYIVNEQHAVSACLGYHGYPKSVCISINEVVCHGIPDDAKLLKDGDIVNIDVTVIKDGFHGDTSKMFIVGKPTIMGERLCRITQESLYLALRMVKPGINLREIGAAIQKFVEAEGFSVVREYCGHGIGRGFHEEPQVLHYDSRETNVVLKPGMTFTIEPMVNAGKKEIRTMKDGWTVKTKDRSLSAQYEHTIVVTDNGCEILTLRKDDTIPAIISHDE
# What was measured:
# [1] = system: Met-tagged onconase; assay: In vivo catalytic activity of MetAPs co-expressed with Met-tagged onconase in E. coli BL21(DE3); N-terminus by Edman degradation; format: cell-based; details: in vivo in E. coli
# Source text: Residues Tyr168, Met206 and Gln233 in the putative substrate-binding site of E. coli MetAP were mutated by site-directed mutagenesis based on the crystal structure and amino acid sequence alignment of MetAPs (Ben-Bassat et al., 1987; Lowther et al., 1999; Walker et al., 1999). For the expression of secretory ribonucleases, the ribonuclease gene was cloned and expressed as described previously (Huang et al., 1998).
# Most of the co-expressed target protein, e.g., onconase or RC-RNase L1, existed in insoluble cell lysate. They were denatured, renatured and purified as described previously (Liao et al., 2003). The purified ribonucleases were stored in 20 mM sodium phosphate, pH 7.0, for pyroglutamate formation at the N-terminus. Alternatively, the ribonuclease secreted into culture medium through pe1B system was concentrated and purified to electrophoretical homogeneity at a yield of 1˜5 mg per 1 liter of culture (Huang et al., 1998).
# [2] = E. coli MetAP mutations; Chiu et al. 1999; cited from earlier work
# [3] = system: synthetic oligopeptides; format: biochemical; details: for Specific activity (unit/mg): 4 mM oligopeptide, pH 7.5, 37° C.
# Procedure: The oligopeptide substrates used in this experiment were synthesized on the 432A Synergy peptide synthesizer (Applied Biosystems, Foster, Calif., USA). The enzymatic activity of purified MetAP was assayed as described by Ben-Bassat et al., 1987. Briefly, the diluted MetAP enzyme in 10 μl was added to 90 μl of the substrate solution containing 4 mM oligopeptide, 0.1 M potassium phosphate buffer, pH 7.5 and 0.2 mM CoCl2, incubated at 37° C. for 10 min and stopped in boiling water for 2 min. After addition of 0.9 ml of color development mixture containing 0.2 mg of L-amino acid oxidase, 0.03 mg of horseradish peroxidase and 0.2 mg of o-dianisidine in 0.1 M Tris-HCl, pH 7.4, the mixtures were incubated for 10 min at 37° C., and the optical density at 440 nm was recorded. One unit of activity is defined as 1 μmol of amino acids produced per min under the assay conditions and the pure Met was used as standard. The N-terminal residues of the MetAP-treated oligopeptide were further verified by Edman degradation.
# [4] = molecular target: Met-tagged onconase with different penultimate residue (Escherichia coli, UniProt P0AE18); details: adapted from Hirel et al., 1989, cited from earlier work
# [5] = system: RC-RNase4; assay: In vivo Met removal, co-expression in E. coli, RC-RNase 4 substrate; format: cell-based, Rana catesbeiana; details: substrate MAAWA (SEQ ID NO:15)-RC4; solubility −
# Procedure: The MetAP was expressed alone or co-expressed with a target protein, i.e., onconase and RC-RNaseL1, in E. coli BL21 (DE3) in the presence of 0.5 mM IPTG at 37° C.
# Proteins in the cell pellet or in the soluble fraction were separated by 13.3% SDS-PAGE and contact-transferred to ProBlott™ membrane (Applied Bioystems) in transfer buffer (10 mM Tris-HCl, pH 7.5, 50 mM NaCl, 2 mM EDTA, 0.5 mM 2-mercaptoethanol) overnight. The five N-terminal residues of the transferred protein were determined by Edman degradation. The percentage of Met removal was calculated by dividing the amount of proteins initiated with the penultimate residue with the amount of total proteins (including proteins initiated with the penultimate residue and unprocessed protein initiated with Met) after the first degradation cycle. In theory, this percentage should remain the same after each degradation cycle. Therefore, in order to avoid experimental variation, the same calculation was made from five consecutive degradation cycles, e.g., M, Q, N, W and L for onconase. The efficiency of Met removal is reported as the mean values of at least three cycles.
# [6] = substrate MAA-Onc, listed as wild type E. coli MetAP
molecule,measurement,setting,value
B1,Catalytic activity (%): removal of N-terminal Met,[1]; substrate MQD-Onc,74%
B2,"Catalytic activity, % activity of the wild type",[2],do not reduce catalytic activity
B3,Catalytic activity (%): removal of N-terminal Met,[1]; substrate MQD-Onc,86%
B4,Catalytic activity (%): removal of N-terminal Met,[1]; substrate MQD-Onc,61%
B5,Catalytic activity (%): removal of N-terminal Met,[1]; substrate MQD-Onc,85%
B6,"Catalytic activity, % activity of the wild type",[2],do not reduce catalytic activity
B7,Catalytic activity (%): removal of N-terminal Met,[1]; substrate MQD-Onc,93%
same,Specific activity (unit/mg),[3]; substrate MADY (SEQ ID NO:7),0.38 ± 0.03 unit/mg
same,Specific activity (unit/mg),[3]; substrate MADYLT (SEQ ID NO:8),0.12 ± 0.01 unit/mg
same,Specific activity (unit/mg),[3]; substrate MQDYLT (SEQ ID NO:9),0.13 ± 0.01 unit/mg
same,Specific activity (unit/mg),[3]; substrate […] (SEQ ID NO:5),1.00 ± 0.08 unit/mg
same,Specific activity (unit/mg),[3]; substrate […] (SEQ ID NO:6),0.25 ± 0.01 unit/mg
B8,Catalytic activity (%): removal of N-terminal Met,[1]; substrate MID-Onc,5%
same,Catalytic activity (%): removal of N-terminal Met,[1]; substrate MLD-Onc,18%
same,Catalytic activity (%): removal of N-terminal Met,[1]; substrate MQD-Onc,96%
same,Specific activity (unit/mg),[3]; substrate MADY (SEQ ID NO:7),0.51 ± 0.01 unit/mg
same,Specific activity (unit/mg),[3]; substrate MADYLT (SEQ ID NO:8),0.29 ± 0.01 unit/mg
same,Specific activity (unit/mg),[3]; substrate MQDYLT (SEQ ID NO:9),0.29 ± 0.02 unit/mg
same,Specific activity (unit/mg),[3]; substrate […] (SEQ ID NO:5),3.28 ± 0.04 unit/mg
same,Specific activity (unit/mg),[3]; substrate […] (SEQ ID NO:6),0.50 ± 0.02 unit/mg
B9,Catalytic activity (%): removal of N-terminal Met,[1]; substrate MQD-Onc,88%
B10,"Catalytic activity, % activity of the wild type",[2],do not reduce catalytic activity
B11,Catalytic activity (%): percent of penultimate residue removed,[1]; substrate MAA-Onc,77%
same,Catalytic activity (%): removal of N-terminal Met,[1]; substrate MAA-Onc,85%
same,Catalytic activity (%): percent of penultimate residue removed,[1]; [6],removed
same,Catalytic activity (%): removal of N-terminal Met,[1]; [6],removed
same,Catalytic activity (%): percent of penultimate residue removed,[1]; substrate MAG-Onc,63%
same,Catalytic activity (%): removal of N-terminal Met,[1]; substrate MAG-Onc,80%
same,Catalytic activity (%): removal of N-terminal Met,"[1]; substrate MQD-Onc, listed as wild type MetAP",failed altogether
same,Catalytic activity (%): removal of N-terminal Met,"[1]; substrate MQD-Onc, listed as wild type enzyme",no activity
same,Catalytic activity (%): efficiency of Met removal by wild type MetAP,[4]; substrate MAD-Onc,100%
same,Catalytic activity (%): efficiency of Met removal by wild type MetAP,[4]; substrate MDD-Onc,~20%
same,Catalytic activity (%): efficiency of Met removal by wild type MetAP,[4]; substrate MED-Onc,0%
same,Catalytic activity (%): efficiency of Met removal by wild type MetAP,[4]; substrate MFD-Onc,0%
same,Catalytic activity (%): efficiency of Met removal by wild type MetAP,[4]; substrate MGD-Onc,100^c %
same,Catalytic activity (%): efficiency of Met removal by wild type MetAP,[4]; substrate MHD-Onc,0%
same,Catalytic activity (%): efficiency of Met removal by wild type MetAP,[4]; substrate MID-Onc,~20%
same,Catalytic activity (%): efficiency of Met removal by wild type MetAP,[4]; substrate MKD-Onc,0%
same,Catalytic activity (%): efficiency of Met removal by wild type MetAP,[4]; substrate MLD-Onc,~20%
same,Catalytic activity (%): efficiency of Met removal by wild type MetAP,[4]; substrate MMD-Onc,0%
same,Catalytic activity (%): efficiency of Met removal by wild type MetAP,[4]; substrate MND-Onc,~20%
same,Catalytic activity (%): efficiency of Met removal by wild type MetAP,[4]; substrate MPD-Onc,80–90%
same,Catalytic activity (%): efficiency of Met removal by wild type MetAP,[4]; substrate MQD-Onc,0%
same,Catalytic activity (%): efficiency of Met removal by wild type MetAP,[4]; substrate MRD-Onc,0%
same,Catalytic activity (%): efficiency of Met removal by wild type MetAP,[4]; substrate MSD-Onc,80–90%
same,Catalytic activity (%): efficiency of Met removal by wild type MetAP,[4]; substrate MTD-Onc,80–90%
same,Catalytic activity (%): efficiency of Met removal by wild type MetAP,[4]; substrate MVD-Onc,80–90%
same,Catalytic activity (%): efficiency of Met removal by wild type MetAP,[4]; substrate MWD-Onc,0%
same,Catalytic activity (%): efficiency of Met removal by wild type MetAP,"[4]; substrate MWD-Onc, listed as wild type MetAP",inactive
same,Catalytic activity (%): efficiency of Met removal by wild type MetAP,[4]; substrate MYD-Onc,0%
same,Catalytic activity (%): efficiency of Met removal by wild type MetAP,"[4]; substrate MYD-Onc, listed as wild type MetAP",inactive
same,Catalytic activity (%): percent of penultimate residue removed,[5],removed
same,Catalytic activity (%): removal of N-terminal Met,[5],removed
same,In vitro catalytic activity,[3]; oligopeptides ranging from tetra- to dodecapeptides with Ala at the penultimate site,high catalytic activity
same,Specific activity (unit/mg),[3]; substrate MADY (SEQ ID NO:7),138 ± 8 unit/mg
same,Specific activity (unit/mg),[3]; substrate MADYLT (SEQ ID NO:8),138 ± 6 unit/mg
same,Specific activity (unit/mg),[3]; substrate MQDYLT (SEQ ID NO:9),0.43 ± 0.01 unit/mg
same,Specific activity (unit/mg),[3]; substrate […] (SEQ ID NO:5),85 ± 13 unit/mg
same,Specific activity (unit/mg),[3]; substrate […] (SEQ ID NO:6),0.62 ± 0.08 unit/mg
